Measured values taken from US20230140868A1, “COMPOSITIONS AND METHODS FOR TREATING CANCER” (Alpha Beta Holdings, LLC, priority 2020, published 2023).

Legend:
[1] = test system: tumor cells; experiment: In vitro ADCC with mouse NK cells; assay type: cell-based; conditions: effector: mouse NK cells
Procedure: (§1) We used the isolated macrophages as effector cells in an antibody-dependent cellular-cytotoxicity (ADCC) assay. […] The ratio of dead target cells (PI-positive) to the total target cell population (CFSE-positive) was calculated as described (Bracher, 2007).
To our surprise, LM609-mediated ADCC was not achieved with mouse NK cells or peripheral blood mononuclear cells (PBMCs) isolated from human blood, immune effector cell types to which antibodies are commonly engineered for optimal binding (Listinsky, 2013; Yu, 2017). In fact, NK cells are not correlated with β3 expression in tumors. These findings were reported in FIG. 3E of Wettersten et al., Cancer Res. 79:5048 (2019).

[2] = test system: αvβ3-expressing tumor cell lines; experiment: Macrophage-mediated killing: Fc dependence, ADCC vs ADCP vs direct killing; assay type: cell-based
Procedure: as §1
These findings were reported in FIGS. 3C-3D of Wettersten et al., Cancer Res. 79:5048 (2019).
Monoclonal antibodies can direct macrophages to induce tumor cell killing through two primary mechanisms, processes known as antibody-dependent cellular phagocytosis (ADCP) and antibody-dependent cellular cytotoxicity (ADCC). […] The lack of an ADCP response is consistent with high tumor cell expression of CD47, the “don't eat me” signal (Chao, 2012) that tumor cells often exploit to evade phagocytosis.

[3] = biological target: integrin αvβ3 (Homo sapiens, UniProt P05106+P06756); conditions: human cells; Cheresh, 1987; cited from earlier work
Sequence of integrin αvβ3 (Homo sapiens, UniProt P05106+P06756) (P06756 31-889 limits assumed): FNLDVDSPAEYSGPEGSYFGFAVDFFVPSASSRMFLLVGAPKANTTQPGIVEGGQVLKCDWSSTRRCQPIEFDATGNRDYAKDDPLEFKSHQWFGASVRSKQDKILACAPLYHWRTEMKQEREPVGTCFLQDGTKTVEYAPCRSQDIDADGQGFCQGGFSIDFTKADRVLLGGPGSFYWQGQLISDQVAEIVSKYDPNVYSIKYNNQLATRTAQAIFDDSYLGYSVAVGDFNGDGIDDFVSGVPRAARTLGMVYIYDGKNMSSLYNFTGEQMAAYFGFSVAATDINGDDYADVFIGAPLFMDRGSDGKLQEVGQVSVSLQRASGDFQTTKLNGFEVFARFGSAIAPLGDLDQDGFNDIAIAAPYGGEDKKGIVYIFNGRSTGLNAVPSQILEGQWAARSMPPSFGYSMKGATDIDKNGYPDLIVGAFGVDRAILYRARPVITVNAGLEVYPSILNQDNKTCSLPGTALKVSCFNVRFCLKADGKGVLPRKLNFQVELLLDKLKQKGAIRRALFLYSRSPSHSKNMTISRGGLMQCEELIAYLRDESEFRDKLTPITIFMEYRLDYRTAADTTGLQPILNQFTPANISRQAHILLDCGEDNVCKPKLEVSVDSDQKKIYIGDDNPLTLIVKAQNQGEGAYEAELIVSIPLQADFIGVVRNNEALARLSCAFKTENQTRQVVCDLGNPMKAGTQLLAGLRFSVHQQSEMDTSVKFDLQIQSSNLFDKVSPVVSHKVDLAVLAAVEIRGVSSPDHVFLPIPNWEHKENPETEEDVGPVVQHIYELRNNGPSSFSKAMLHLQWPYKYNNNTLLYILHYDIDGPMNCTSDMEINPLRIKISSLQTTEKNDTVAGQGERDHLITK
Sequence of integrin αvβ3 (Homo sapiens, UniProt P05106+P06756) (P06756 891-1048 limits assumed): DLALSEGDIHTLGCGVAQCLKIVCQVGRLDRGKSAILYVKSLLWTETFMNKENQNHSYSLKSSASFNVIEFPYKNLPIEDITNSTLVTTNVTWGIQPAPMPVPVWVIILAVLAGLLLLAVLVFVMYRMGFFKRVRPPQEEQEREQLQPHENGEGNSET
Sequence of integrin αvβ3 (Homo sapiens, UniProt P05106+P06756) (P05106 27-788): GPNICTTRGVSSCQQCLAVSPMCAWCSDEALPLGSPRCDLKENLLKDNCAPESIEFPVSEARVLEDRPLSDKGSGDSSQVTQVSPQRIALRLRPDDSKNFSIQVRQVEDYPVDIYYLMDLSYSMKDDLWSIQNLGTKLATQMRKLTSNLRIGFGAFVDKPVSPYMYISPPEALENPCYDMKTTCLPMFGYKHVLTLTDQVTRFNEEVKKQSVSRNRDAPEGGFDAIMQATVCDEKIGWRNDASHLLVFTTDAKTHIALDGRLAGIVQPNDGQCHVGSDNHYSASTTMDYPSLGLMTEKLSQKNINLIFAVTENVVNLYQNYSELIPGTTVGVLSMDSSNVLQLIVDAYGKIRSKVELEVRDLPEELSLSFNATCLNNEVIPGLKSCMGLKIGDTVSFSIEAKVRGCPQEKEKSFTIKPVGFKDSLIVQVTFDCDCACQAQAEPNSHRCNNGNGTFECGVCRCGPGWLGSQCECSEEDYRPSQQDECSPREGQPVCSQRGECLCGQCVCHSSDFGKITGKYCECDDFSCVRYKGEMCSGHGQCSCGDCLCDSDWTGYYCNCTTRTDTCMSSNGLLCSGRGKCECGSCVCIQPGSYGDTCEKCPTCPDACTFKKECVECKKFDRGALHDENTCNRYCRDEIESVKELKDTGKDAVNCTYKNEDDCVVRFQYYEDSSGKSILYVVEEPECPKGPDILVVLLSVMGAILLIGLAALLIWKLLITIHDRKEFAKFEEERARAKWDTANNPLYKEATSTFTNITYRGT

[4] = biological target: T1, integrin αvβ3 (Mus musculus, UniProt O54890+P43406); conditions: mouse cells; Cheresh, 1987; cited from earlier work
T1 sequence (P43406 31-885 limits assumed): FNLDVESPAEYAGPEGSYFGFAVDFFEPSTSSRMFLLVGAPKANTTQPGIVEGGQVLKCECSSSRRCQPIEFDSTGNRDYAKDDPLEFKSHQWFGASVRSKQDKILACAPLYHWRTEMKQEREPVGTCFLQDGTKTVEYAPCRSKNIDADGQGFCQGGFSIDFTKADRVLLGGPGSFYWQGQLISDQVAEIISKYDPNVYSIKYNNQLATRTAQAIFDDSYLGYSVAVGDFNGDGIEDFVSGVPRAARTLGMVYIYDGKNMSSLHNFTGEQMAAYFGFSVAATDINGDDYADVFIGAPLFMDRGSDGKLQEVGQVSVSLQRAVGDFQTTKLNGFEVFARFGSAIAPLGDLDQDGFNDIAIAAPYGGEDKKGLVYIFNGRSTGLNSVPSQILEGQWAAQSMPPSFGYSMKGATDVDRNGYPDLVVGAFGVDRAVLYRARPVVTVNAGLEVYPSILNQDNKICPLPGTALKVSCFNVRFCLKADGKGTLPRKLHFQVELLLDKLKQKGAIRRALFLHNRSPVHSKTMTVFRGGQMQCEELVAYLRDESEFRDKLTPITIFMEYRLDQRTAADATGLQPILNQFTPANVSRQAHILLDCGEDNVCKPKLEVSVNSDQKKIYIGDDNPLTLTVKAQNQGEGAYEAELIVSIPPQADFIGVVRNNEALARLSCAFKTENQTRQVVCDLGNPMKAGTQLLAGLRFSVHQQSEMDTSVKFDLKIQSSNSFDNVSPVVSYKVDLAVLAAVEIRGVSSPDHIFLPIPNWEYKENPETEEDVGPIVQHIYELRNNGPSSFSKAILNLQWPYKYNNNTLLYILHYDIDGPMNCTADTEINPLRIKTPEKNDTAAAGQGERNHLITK
T1 sequence (P43406 887-1044 limits assumed): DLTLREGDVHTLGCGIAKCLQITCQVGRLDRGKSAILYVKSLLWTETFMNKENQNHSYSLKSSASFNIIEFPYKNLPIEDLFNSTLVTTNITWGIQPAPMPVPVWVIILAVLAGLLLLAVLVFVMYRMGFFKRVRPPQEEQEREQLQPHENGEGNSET
T1 sequence (O54890 26-787): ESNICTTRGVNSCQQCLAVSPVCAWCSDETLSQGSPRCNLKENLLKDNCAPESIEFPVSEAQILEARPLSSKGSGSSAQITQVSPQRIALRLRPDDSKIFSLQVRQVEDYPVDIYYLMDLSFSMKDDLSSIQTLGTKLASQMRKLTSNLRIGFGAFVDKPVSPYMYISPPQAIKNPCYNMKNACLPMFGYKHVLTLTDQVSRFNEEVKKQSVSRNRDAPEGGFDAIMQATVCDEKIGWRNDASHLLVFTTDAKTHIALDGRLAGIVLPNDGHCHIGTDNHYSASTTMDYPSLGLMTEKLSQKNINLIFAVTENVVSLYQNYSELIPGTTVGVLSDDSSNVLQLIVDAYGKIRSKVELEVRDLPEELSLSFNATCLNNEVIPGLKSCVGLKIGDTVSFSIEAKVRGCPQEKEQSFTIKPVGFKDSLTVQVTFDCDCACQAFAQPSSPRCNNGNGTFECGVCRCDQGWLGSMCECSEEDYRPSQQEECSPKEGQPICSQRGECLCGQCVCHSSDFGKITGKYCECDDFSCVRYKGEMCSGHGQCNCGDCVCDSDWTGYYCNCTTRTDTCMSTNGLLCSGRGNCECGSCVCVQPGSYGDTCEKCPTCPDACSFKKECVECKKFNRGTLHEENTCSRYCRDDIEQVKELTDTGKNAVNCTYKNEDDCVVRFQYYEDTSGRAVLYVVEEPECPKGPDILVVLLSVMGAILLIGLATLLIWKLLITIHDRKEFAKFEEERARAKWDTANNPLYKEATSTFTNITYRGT

[5] = additional αvβ3-expressing tumor cell lines: lung, pancreas, brain, kidney cancer

B1: LM609: mouse monoclonal IgG1K antibody that recognizes human integrin αvβ3; SEQ ID NO:11 and 12 (antibody)
heavy: MNFGLRLIFLVLTLKGVKCEVQLVESGGGLVKPGGSLKLSCAASGFAFSSYDMSWVRQIPEKRLEWVAKVSSGGGSTYYLDTVQGRFTISRDNAKNTLYLQMSSLNSEDTAMYYCARHNYGSFAYWGQGTLVTVSAAKTTPPSVYPLAPGSAAQTNSMVTLGCLVKGYFPEPVTVTWNSGSLSSGVHTFPAVLQSDLYTLSSSVTVPSSTWPSETVTCNVAHPASSTKVDKKIVPRDCGCKPCICTVPEVSSVFIFPPKPKDVLTITLTPKVTCVVVDISKDDPEVQFSWFVDDVEVHTAQTQPREEQFNSTFRSVSELPIMHQDWLNGKEFKCRVNSAAFPAPIEKTISKTKGRPKAPQVYTIPPPKEQMAKDKVSLTCMITDFFPEDITVEWQWNGQPAENYKNTQPIMDTDGSYFVYSKLNVQKSNWEAGNTFTCSVLHEGLHNHHTEKSLSHSPGK
light: MVFTPQILGLMLFWISASRGDIVLTQSPATLSVTPGDSVSLSCRASQSISNHLHWYQQKSHESPRLLIKYASQSISGIPSRFSGSGSGTDFTLSINSVETEDFGMYFCQQSNSWPHTFGGGTKLEIKRADAAPTVSIFPPSSEQLTSGGASVVCFLNNFYPKDINVKWKIDGSERQNGVLNSWTDQDSKDSTYSMSSTLTLTKDEYERHNSYTCEATHKTSTSPIVKSFNRNEC
modifications: mAb LM609-mIgG1-kappa Heavy chain; mAb LM609-mIgG1-kappa Light chain
Question: With B1 as the molecule, how does the “LM609-mediated ADCC” value [1] read?
Answer: not achieved

Question: What about the ADCP ([2]; FIG. 3F of Wettersten et al.) of the same molecule?
Answer: not ADCP

Question: And the direct killing ([2]; FIG. 3F of Wettersten et al.)?
Answer: not ADCP or direct killing

Question: And the ADCP [2, 5]?
Answer: not ADCP

Question: What about the direct killing [2, 5] of the same molecule?
Answer: not ADCP or direct killing

Question: And the “macrophage-mediated ADCC” value [2, 5]?
Answer: also observed

Question: What about the macrophage-mediated killing ([2]; in the presence of an antibody blocking the Fc receptors CD16, CD32, and CD64) of the same molecule?
Answer: no macrophage-mediated killing

Question: And the “macrophage ADCC” value ([2]; required integrin β3 expression, FIG. 3F of Wettersten et al.)?
Answer: induced macrophage ADCC

Question: And the “recognition of integrin αvβ3” value [3]?
Answer: recognizes integrin αvβ3 on human

Question: What about the “recognition of integrin αvβ3” value [4] of the same molecule?
Answer: not mouse cells
